Assay [1] has as its target Polβ(T304I), purified recombinant (human, UniProt P06746 1-335, T304I). Kind of assay: SPR; OpenSPR localized SPR (Nicoya); Polβ(WT) or Polβ(T304I) covalently coupled (EDC/NHS) to a carboxyl sensor; XRCC1 injected at 10, 100 nM, 1, 2, 5 and 10 μM; 25 mM HEPES pH 8.0, 150 mM NaCl, 200 mM MgCl2, 0.1% Tween 20, 1 mM TCEP; KD from response versus concentration (affinity model). To be noted: both partners purified. Background: In SPR one partner is held on a chip, and binding of the other changes the refractive index at the surface.

Assay [2] concerns the target Polβ(WT), purified recombinant (human, UniProt P06746 1-335). The description is as above. The conditions noted are these: both partners purified.

B1: NTD-XRCC1(1-151)-His (domain or fragment)
chain: MPEIRLRHVVSCSSQDSTHCAENLLKADTYRKWRAAKAGEKTISVVLQLEKEEQIHSVDIGNDGSAFVEVLVGSSAGGAGEQDYEVLLVTSSFMSPSESRSGSNPNRVRMFGPDKLVRAAAEKRWDRVKIVCSQPYSKDSPFGLSFVRFHS
notes: N-terminal domain of XRCC1, residues 1-151; human by the plasmid's name (hXRCC1); The name puts the His tag after the fragment; also called N-terminal fragment of XRCC1
With B1, the “mean fold decrease of binding affinity (KD) against Polβ(WT)” value in assay [1] stood at 6.18 fold. In assay [2], the binding result is reported as “binds”.

For the origin of these results see paper PMC6614843, “Stability and sub-cellular localization of DNA polymerase β is regulated by interactions with NQO1 and XRCC1 in response to oxidative stress” (Nucleic Acids Research, 2019).
